Test results as given in publication PMC9181159, “High Nitric Oxide Concentration Inhibits Photosynthetic Pigment Biosynthesis by Promoting the Degradation of Transcription Factor HY5 in Tomato”.

Molecular target: T1, HY5 (LONG HYPOCOTYL 5) (Solanum lycopersicum, UniProt Q9SM50 1-158)
T1 sequence: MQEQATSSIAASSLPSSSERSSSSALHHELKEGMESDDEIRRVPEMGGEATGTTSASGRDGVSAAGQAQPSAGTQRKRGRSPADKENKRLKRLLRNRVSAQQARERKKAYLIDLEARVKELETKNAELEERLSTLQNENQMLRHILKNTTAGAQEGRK
Experiment: EMSA; no GSNO; LightShift Chemiluminescent EMSA Kit, 20 min at room temperature, 6% native polyacrylamide gel; buffer, salt and pH not stated
Settings: protein: recombinant; tags: His (pET-32a fusion); chain copies: 2; label: biotin 3' end; blunt

B1: PSY2-wt probe (dsDNA)
DNA 1: CTGTGATTTACACGTGTCCTCTTTAT
DNA 2: ATAAAGAGGACACGTGTAAATCACAG
B1: binds.

B2: PORC-wt probe (dsDNA)
DNA 1: CAAAATGCAACACGTGATGTATGAAT
DNA 2: ATTCATACATCACGTGTTGCATTTTG
B2: binds.
